Blank lines part the entries; values can stand above or below the molecule they belong to.
Legend:
[1] = target: T1, α-N-Arabinofuranosidase (FjArf51) (Flavobacterium johnsoniae, UniProt A5FF88); assay: 4-nitrophenol release at […] nm, Michaelis-Menten fit; assay type: biochemical; conditions: 30 °C, pH 7, 50 mM phosphate
T1 construct: gene Fjoh_3113; full-length codon-optimised synthetic gene, pET-28a(+), C-terminal 6xHis, E. coli BL21(DE3) pLysS, 75 kDa
T1 sequence (A5FF88 1-661): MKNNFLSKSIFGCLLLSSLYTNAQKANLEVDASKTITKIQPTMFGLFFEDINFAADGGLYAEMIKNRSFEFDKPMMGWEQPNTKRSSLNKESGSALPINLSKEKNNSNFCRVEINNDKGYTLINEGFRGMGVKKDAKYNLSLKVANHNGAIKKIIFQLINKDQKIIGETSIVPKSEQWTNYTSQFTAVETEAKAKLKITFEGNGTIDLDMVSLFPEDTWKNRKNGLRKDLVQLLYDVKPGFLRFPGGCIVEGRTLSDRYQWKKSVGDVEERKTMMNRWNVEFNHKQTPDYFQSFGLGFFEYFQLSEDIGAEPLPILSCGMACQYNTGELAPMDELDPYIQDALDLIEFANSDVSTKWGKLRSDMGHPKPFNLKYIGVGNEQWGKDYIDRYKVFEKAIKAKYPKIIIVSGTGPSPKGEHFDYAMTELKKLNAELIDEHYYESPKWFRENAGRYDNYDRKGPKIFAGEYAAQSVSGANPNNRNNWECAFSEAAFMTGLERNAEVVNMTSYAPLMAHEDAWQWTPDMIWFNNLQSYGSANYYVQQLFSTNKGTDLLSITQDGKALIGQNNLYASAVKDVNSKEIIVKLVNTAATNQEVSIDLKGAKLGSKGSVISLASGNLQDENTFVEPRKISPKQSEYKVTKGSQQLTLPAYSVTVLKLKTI

purified protein [2] = substrate: O=[N+]([O-])c1ccc(O[C@@H]2OC[C@@H](O[C@@H]3OC[C@@H](O[C@@H]4OC[C@@H](O)[C@H](O)[C@H]4O)[C@H](O)[C@H]3O)[C@H](O)[C@H]2O)cc1; assay: purified protein; assay type: biochemical, Flavobacterium johnsoniae; conditions: 30 °C, pH 6, 50 mM phosphate
purified protein [3] = substrate: C[C@@H]1O[C@@H](Oc2ccc([N+](=O)[O-])cc2)[C@@H](O)[C@H](O)[C@@H]1O; assay: purified protein; assay type: biochemical, Spirosoma linguale; conditions: 30 °C, pH 5, 50 mM citrate-phosphate
purified protein [4] = substrate: O=[N+]([O-])c1ccc(O[C@@H]2O[C@H](CO)[C@H](O)[C@H](O)[C@H]2O)cc1; assay: purified protein; assay type: biochemical, Agrobacterium fabrum; conditions: 30 °C, pH 7, 50 mM phosphate
purified protein [5] = substrate: O=[N+]([O-])c1ccc(O[C@@H]2O[C@H](CO)[C@@H](O)[C@H](O)[C@@H]2O)cc1; assay: purified protein; assay type: biochemical, Agrobacterium fabrum; conditions: 30 °C, pH 7, 50 mM phosphate
purified protein [6] = substrate: O=[N+]([O-])c1ccc(O[C@@H]2OC[C@@H](O[C@@H]3OC[C@@H](O[C@@H]4OC[C@@H](O)[C@H](O)[C@H]4O)[C@H](O)[C@H]3O)[C@H](O)[C@H]2O)cc1; assay: purified protein; assay type: biochemical, Spirosoma linguale; conditions: 30 °C, pH 6, 50 mM phosphate

Km [1]: 220 ± 87 µM
Molecule: O=[N+]([O-])c1ccc(O[C@@H]2OC[C@H](O)[C@H](O)[C@H]2O)cc1 [4NP-α-Ara]

B1: Oligosaccharide reducing end Xylanase (FjXyn8) (Flavobacterium johnsoniae UW101) (protein)
chain: MTVHHNITNGYLSKIHLLLLIFALIVPAFVISQNKKKIDRELKKPQYRNLFKEAGYSQDDIDKKLTKAYYDVFEGPDKVYFEEGDSLGYVSDVKNKDARTEGMSYGMMVAVQFNKKDVFDRLWRWSVKYMQHQDGPREGYFAWSVNPQTKKQNSAGSASDGELYYITSLLFASNKWGNDTGINYYKEARRILDAMWKKDGTGNIYNIINTEHKQISFVPEGGGYNWTDPSYHVPAFYEIWALYAKDGHEQFYKECAEVSRKFLHKACHPVTGLTSDYTEFNGEPHPTPWLPPGFRYDSWRVPMNIAMDYTWYGKDKEWQEDYAKRFQNFLRSKGLETYEDQFNLDGSTPEFILQAGPVKKLRHSIGLVGTAATASLVNKDKASIDFVHAVWNAKLEPYEDGYFDPYYDGLMYLFSLMHLSGNYQIIVPKG
notes: full-length codon-optimised synthetic gene, pET-28a(+), C-terminal 6xHis, E. coli BL21(DE3) pLysS, 50 kDa
Km (purified protein [2]): 790 ± 222 µM | kcat (purified protein [2]): 5.15 s⁻¹ | kcat/Km (purified protein [2]): 6530 M⁻¹ s⁻¹

B2: α-L-Fucosidase (SlFuc29) (Spirosoma linguale DSM 74) (protein)
chain: MKKQITSILFSLLVSTSALAQQHSEQNHDKYVWPKDELVKKKLANWQDIKFGLLMHWGTYSEWGVVESWSLCPEDEGWCERRGPYAANWFEYKKAYENLQTTFNPTKFNPERWANAAKGAGMKYVVFTTKHHDGFCMFDTKLTDYKITDKKTPFSSNPRSNVTKEILGAFRQQGFMVGTYFSKPDWHTEDYWWTYFPPKDRNVSYDPKKYPDHWKKFSDFTYNQIEELMTGYGNVDILWLDGGWVRPASTIDSTVSWQRTIPYSQDINMARIAGMARQHQPGLLVVDRTVSGEFENYVTPEQSIPDHYMPIPWESCITMGDSWSYIPKENFKPARKLVQTLVDIVAKNGNLLLNIAPGPDGEWHEEAYQRLQEIGKWITVNGESIYGTKPLAPYRQGQWAFTSNNKAVYASYLPSESEQQLPASISLPALTVAPNAKVTVLGASQALKLTKTKDGFSVVVPEKVRQQLAGQPVWVFKIG
notes: full-length codon-optimised synthetic gene, pET-28a(+), C-terminal 6xHis, E. coli BL21(DE3) pLysS, 55 kDa
Km (purified protein [3]): 580 ± 20 µM | kcat (purified protein [3]): 53.1 s⁻¹ | kcat/Km (purified protein [3]): 91800 M⁻¹ s⁻¹

B3: β-Mannosidase (AfMan2) (Agrobacterium fabrum str. C58) (protein)
chain: MISSSTPETVIDLAGLWHLASVEGDHATEISIPGDIHSALKNAAIIPDPYHGANEKAVQWVAQQDWIIERTFILDDAEASWYLDIDYLDTVAIVFVNDVPVLSADNCFRRYRPDISRAVRPGENTIRIHFHSNITAGAERQARQPFYIPYHPGNSPIANGNMLRKPQCHFGWDWNIAIAPLGLYGKILLKRLDTARIEHVVSSQHHVEGGVELHVAVTLFAEGPASLPVYLSLGDERLRLECGVGAGETVVRHVFFVENPDLWWPAGSGEQTLYKLTVELPDETVTRQIGFRTIELLTDKDEAGSRFAFRINGREIFCRGANWIPADALYSLTSREKTEDLLCSAVEANMNMIRVWGGGFYEEDWFYDLCDRLGLLVWQDFMFACNLYPCSEDFLDNVEHEVDYQVKRLSSHPSIALWCGDNELVGALTWFDESRNNRDRYLVAYDRLNRTIEKALKKATPEALWWPSSPASGYLDYGDAWHADGSGDMHYWSVWHENKSFDNYHQVKPRFCSEFGFQSYTSMPVIRTYAEDKDMNIASPVIELHQKNVGGNERIAGTMFRYFRFPRDFENFVYLSQVQQALAIRTAVDYWRSLKPHCMGTLYWQLNDTWPVASWSSLDYGGGWKALHYAARRFFQPVAVSAIPSADGRRVTFSMVNDTAEDVEIDMNIVALAMDGNRVPLKSANGTCTSDKAATLTDIDMDSLPDGAILAWNFIASNGMTGEGHHVRDTYKALELQPAGLEFSVGPLKNGQFEIDVTAAGLALFIMLEADQPGRYSDNLFDLAAGETRRIIFTPKGAGPQPHFRIFDLHTCQSSPNPGIETMRRKA
notes: full-length codon-optimised synthetic gene, pET-28a(+), C-terminal 6xHis, E. coli BL21(DE3) pLysS, 93 kDa
Km (purified protein [4]): 250 ± 62 µM | kcat (purified protein [4]): 269 s⁻¹ | kcat/Km (purified protein [4]): 1.08e+06 M⁻¹ s⁻¹ | Km (purified protein [5]): 680 ± 219 µM | kcat (purified protein [5]): 1350 s⁻¹ | kcat/Km (purified protein [5]): 1.98e+06 M⁻¹ s⁻¹

B4: Xylan β-1,4 Xylosidase (SlXyn39) (Spirosoma linguale DSM 74) (protein)
chain: MPLLRRFCLQTGHLSALFFGLVVSVAFGSIDSHAQTSPDKPVAIQVDLTKDKGPLKPIWAWFGYDEPNYTYMKDGRKLLTEISQLSKVPVNVRVHSLLVTGDGTAALKWGSTNAYTEDKAGNPIYNWTIIDKIFDTFIERGMKPIAQIGFMPEALSTKPQPYRHYWKPGDNYNDIYTGWAYPPKDYKKWSELVYQWVKHSVQRYGQKEVESWYWELWNEPNISYWKGTTEEYIKLYDYTADAVKRALPTAKIGGPEVTGPNWDVSEKFFRAFMDHVVKGTNAVTGKVGTPIDFITFHAKGAPKVVNGVVQMNMGTQLRDIDKGFAIVASYPSLKNLPIIIGESDPEGCAACSEDLHPQNAYRNGTMYSSYTAASFARKYDLAEARGVNLAGAVTWGFEFEDQAWFRGFRDLATNGVDKPVLNVFRMFGMMQGNRVAVNTDLAYNAKKIRDESVRGEPDINALATKDAQSASVMVWNYHDDNVQGPGSPVSLKINGLTAKKVWVQHYRIDQQFSNSYEVWKKMGSPKAPTAEQVAELEKAGQLQLLASPTWVTVEKGVLTMPFQLPRQGVSLVKVSW
notes: full-length codon-optimised synthetic gene, pET-28a(+), C-terminal 6xHis, E. coli BL21(DE3) pLysS, 65 kDa
Km (purified protein [6]): 80 ± 9 µM | kcat (purified protein [6]): 2.17 s⁻¹ | kcat/Km (purified protein [6]): 26900 M⁻¹ s⁻¹
